Experimental data published in PMC4078008, “Exploring metabolic engineering design principles for the photosynthetic production of lactic acid by Synechocystis sp. PCC6803” (Biotechnology for Biofuels, 2014).

Substrate: CC(=O)C(=O)O
Assay: purified protein
Format: biochemical, Bacillus subtilis
Details: 50 mM phosphate pH 6.5, 30 °C, no FBP, co-substrate NADH (general LDH assay)

Row | Protein | Km [mM]
1 | L-LDH of B. subtilis (BsLDH) (Bacillus subtilis subsp. subtilis str. 168) (protein, codon-optimized gene, pET28b+ NdeI/HindIII, N-terminal His-tag (removal not mentioned), E. coli BL21(DE3), HisTrap-purified) MNKHVNKVALIGAGFVGSSYAFALINQGITDELVVIDVNKEKAMGDVMDLNHGKAFAPQPVKTSYGTYEDCKDADIVCICAGANQKPGETRLELVEKNLKIFKGIVSEVMASGFDGIFLVATNPVDILTYATWKFSGLPKERVIGSGTTLDSARFRFMLSEYFGAAPQNVHAHIIGEHGDTELPVWSHANVGGVPVSELVEKNDAYKQEELDQIVDDVKNAAYHIIEKKGATYYGVAMSLARITKAILHNENSILTVSTYLDGQYGADDVYIGVPAVVNRGGIAGITELNLNEKEKEQFLHSAGVLKNILKPHFAEQKVN | 4.34 ± 1.24
2 | L-LDH of B. subtilis (BsLDH) (Bacillus subtilis subsp. subtilis str. 168; V38R) (protein, codon-optimized gene, pET28b+ NdeI/HindIII, N-terminal His-tag (removal not mentioned), E. coli BL21(DE3), HisTrap-purified) MNKHVNKVALIGAGFVGSSYAFALINQGITDELVVIDRNKEKAMGDVMDLNHGKAFAPQPVKTSYGTYEDCKDADIVCICAGANQKPGETRLELVEKNLKIFKGIVSEVMASGFDGIFLVATNPVDILTYATWKFSGLPKERVIGSGTTLDSARFRFMLSEYFGAAPQNVHAHIIGEHGDTELPVWSHANVGGVPVSELVEKNDAYKQEELDQIVDDVKNAAYHIIEKKGATYYGVAMSLARITKAILHNENSILTVSTYLDGQYGADDVYIGVPAVVNRGGIAGITELNLNEKEKEQFLHSAGVLKNILKPHFAEQKVN | 4.00 ± 0.50
